What was measured:
K8 (1-383) = biological target: T1, K8 (1-383); assay: Western blot of SDS-PAGE-separated K8 GST fusion proteins, stained with COU-1 alone
T1 construct: not shown: N-terminal GST and its linker (modified pGEX-2T)
T1 chain: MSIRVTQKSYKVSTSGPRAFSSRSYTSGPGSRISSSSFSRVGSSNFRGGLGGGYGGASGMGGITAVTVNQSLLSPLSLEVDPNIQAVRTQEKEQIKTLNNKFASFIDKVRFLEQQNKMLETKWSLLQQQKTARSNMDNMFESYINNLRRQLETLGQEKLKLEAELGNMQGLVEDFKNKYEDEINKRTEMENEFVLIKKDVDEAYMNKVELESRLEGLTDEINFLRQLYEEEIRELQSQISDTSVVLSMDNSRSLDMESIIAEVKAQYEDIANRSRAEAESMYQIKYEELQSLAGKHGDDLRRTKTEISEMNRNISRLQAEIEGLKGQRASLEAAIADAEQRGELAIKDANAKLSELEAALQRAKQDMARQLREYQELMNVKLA

K8 (1-299) = biological target: T2, K8 (1-299); assay: as above
T2 construct: not shown: N-terminal GST and its linker (modified pGEX-2T)
T2 chain: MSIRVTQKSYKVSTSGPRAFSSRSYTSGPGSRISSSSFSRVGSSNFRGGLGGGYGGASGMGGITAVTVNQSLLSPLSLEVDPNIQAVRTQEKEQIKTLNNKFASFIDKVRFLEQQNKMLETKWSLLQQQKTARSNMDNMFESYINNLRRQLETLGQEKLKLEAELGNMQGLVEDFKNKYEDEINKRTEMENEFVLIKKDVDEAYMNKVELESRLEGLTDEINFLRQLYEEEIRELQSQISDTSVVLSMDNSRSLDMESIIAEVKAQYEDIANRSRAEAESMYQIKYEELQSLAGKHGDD

[1] = biological target: T3, recombinant intact K8 (GST fusion protein) (human, UniProt P05787 2-483); assay: as above
T3 construct: Alone, not complexed with K18; GST placed first as in pGEX vectors; also called full length K8; cytokeratin 8; not shown: glutathione S-transferase (GST) fusion partner, modified pGEX-2T vector
T3 chain: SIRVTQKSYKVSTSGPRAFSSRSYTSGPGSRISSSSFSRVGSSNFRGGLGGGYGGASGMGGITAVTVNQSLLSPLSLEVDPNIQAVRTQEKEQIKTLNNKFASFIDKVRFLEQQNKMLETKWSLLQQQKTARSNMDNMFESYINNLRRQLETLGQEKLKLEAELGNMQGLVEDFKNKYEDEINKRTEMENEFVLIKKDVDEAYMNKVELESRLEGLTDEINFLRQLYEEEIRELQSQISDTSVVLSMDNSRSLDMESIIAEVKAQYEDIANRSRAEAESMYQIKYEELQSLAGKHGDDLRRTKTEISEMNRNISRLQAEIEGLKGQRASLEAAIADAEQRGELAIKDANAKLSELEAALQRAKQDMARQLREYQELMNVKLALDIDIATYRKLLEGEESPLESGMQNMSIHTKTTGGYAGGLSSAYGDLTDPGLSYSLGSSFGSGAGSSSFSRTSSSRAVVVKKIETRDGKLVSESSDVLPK

K8 (1-233) = biological target: T4, K8 (1-233); assay: as above
T4 construct: not shown: N-terminal GST carrier (modified pGEX-2T) and any linker
T4 chain: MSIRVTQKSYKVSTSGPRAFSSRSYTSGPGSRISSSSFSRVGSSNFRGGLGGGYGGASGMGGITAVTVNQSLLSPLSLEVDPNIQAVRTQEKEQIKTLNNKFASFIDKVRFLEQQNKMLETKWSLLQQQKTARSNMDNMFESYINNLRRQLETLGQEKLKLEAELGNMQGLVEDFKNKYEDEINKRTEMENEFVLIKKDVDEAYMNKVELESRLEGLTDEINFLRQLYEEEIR

K8 (1-85) = biological target: T5, K8 (1-85); assay: as above
T5 construct: also called K8(1-85) GST fusion protein; not shown: N-terminal GST carrier (modified pGEX-2T) and its linker
T5 chain: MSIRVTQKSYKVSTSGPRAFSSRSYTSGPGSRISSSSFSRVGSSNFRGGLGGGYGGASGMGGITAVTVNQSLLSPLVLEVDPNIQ

K8 (1-367) = biological target: T6, K8 (1-367); assay: as above
T6 construct: not shown: N-terminal GST and its linker (modified pGEX-2T)
T6 chain: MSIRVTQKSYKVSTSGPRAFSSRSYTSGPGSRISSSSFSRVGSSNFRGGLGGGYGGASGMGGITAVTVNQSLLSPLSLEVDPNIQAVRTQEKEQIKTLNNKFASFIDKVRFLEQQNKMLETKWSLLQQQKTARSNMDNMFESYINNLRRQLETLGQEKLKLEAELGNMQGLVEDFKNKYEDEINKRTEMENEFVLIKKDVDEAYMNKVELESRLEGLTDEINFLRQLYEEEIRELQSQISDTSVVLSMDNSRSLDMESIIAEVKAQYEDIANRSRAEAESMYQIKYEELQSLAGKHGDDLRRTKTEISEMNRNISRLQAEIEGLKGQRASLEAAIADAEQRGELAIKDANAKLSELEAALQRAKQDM

[2] = biological target: T7, K8(1-85)/K18(1-213) heterotypic complex (human, UniProt P05787 2-86; P05783 2-214); assay: heterotypic association assay: blotted K8 proteins incubated with purified K18(1-213), then stained with COU-1
T7 construct: Heterotypic complex of two GST fusion proteins; not shown: glutathione S-transferase (GST) fusion partner, modified pGEX-2T vector
T7 chain 1: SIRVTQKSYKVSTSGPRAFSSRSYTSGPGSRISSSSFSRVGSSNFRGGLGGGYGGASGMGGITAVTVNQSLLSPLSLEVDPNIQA
T7 chain 2: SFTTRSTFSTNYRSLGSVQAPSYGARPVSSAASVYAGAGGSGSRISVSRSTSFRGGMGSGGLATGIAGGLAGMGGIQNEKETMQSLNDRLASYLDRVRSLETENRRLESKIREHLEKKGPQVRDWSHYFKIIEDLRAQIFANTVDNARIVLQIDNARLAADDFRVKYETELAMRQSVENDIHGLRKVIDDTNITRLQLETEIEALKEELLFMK

B1: human monoclonal IgM antibody COU-1 (antibody, V domains shown)
VH: GAEVKKPGASVKVSCKASDYTFSSYYMHWVRQAPGQGLEWMGIINPSGGSTSYAQKFQGRVTMTRDTSTNTVYMELSSLRSEDTAVYYCARDQVVVAATLSNYGMDVWGQGTTVTVSS
VL: ELTQSPGTLSLSPGERATLSCRASQSVSSSYLAWYQQKPGQAPRLLIYDASNRATGIPARFSGSGSGTDFTLTISSLEPEDFAVYYCQQGTNWGIAFGQGTRLDIKR
notes: Human IgM with kappa light chain, secreted by hybridoma B9165 (ECACC 87040201), purified from culture supernatant; also called HMab COU-1; HuMab COU-1
B1: no binding (tested: 5 µg/ml COU-1 (P-0279)) (K8 (1-383)); no binding (tested: 5 µg/ml COU-1 (P-0279)) (K8 (1-299)); no binding (tested: 5 µg/ml COU-1 (P-0279)) [1]. B1: no binding (tested: 5 µg/ml COU-1 (P-0279)) (K8 (1-233)); no binding (tested: 5 µg/ml COU-1 (P-0279)) (K8 (1-85)); no binding (tested: 5 µg/ml COU-1 (P-0279)) (K8 (1-367)). B1: no binding (tested: 5 µg/ml COU-1 (P-0285)) [2].
